Assay results taken from the NTF2 design screens of Basanta et al. (2020).

Assay: protease stability score; higher = more stable; yeast display proteolysis, trypsin and chymotrypsin;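 further: relative to predicted unfolded state with 0 unfolded-like and 1 meaning tenfold more protease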

Sequence | protease stability score
TESEEDAEWAFRILEHVLETGDEHLLRVLLDPHVRVHIDGRNIHGRENVIRELTEIRIHVEMHLEHVDLQGDKMHIDLRVHIIIIFNGQEKRRTHRMEMIVFKYDGKWFINEIHFH | 1.37
TESEFMKEYANKHLTRHLETGDWKDFQRNVDPNARVDFNGVELIGREHAIKLFHEIRIEHLEIHDVKMQGDKLEVDGILHTRQGDKRHDLKVIIHMLKVDGKWVITEIEVR | 0.948
TESEKEAHDAVKRSIDSWLTGDEHDMAELLDPNVRLEIGDKTFIGREEFVKWLKDVREKFKGVRLHIRDYRVHVVGDKVRVEIDIQEDYGDKFHDVTLVFILRKIDGRWHNQSVEVRIE | 1.58
TESEKLSRIVIKLLIESTRTGDERILHELVDPNVKLNVNGRELHGWEEMVKIHKQWRFHDLEVDSVRLIGDKMEIDTTIHGTIDGQKDNIDVRIILEKVNGRWVLREVHIK | 1.58
TESEKMALIAIEIIFHDLLTGNEESLIKLADPDVQLHYGDKTFHGREEFHKLYSEIIKRYDHIEVLIRDIRVQGDKMHVKEELNLVINGKTVHLESNRTSLKYNGRWHLKSVHLH | 1.26
TESEKSAHEFLELFEKSIVTGDEDNLDKMADPNVQTIINGREFHGREEMVKAFREIWNIMGVKHIEIRLKQIDFQGEKISVDSRLHIDVNGKRIDHSMTIIFRKINGRWVLESINRD | 1.34
TESKQEEHLALEVIEHAYRTGDEHELHELLDPHTRIFIGDKTHHGREFYLRVLKRERDELGVDKIEIIIRRVEIQGDKMIMDGELRVNGKTVRVHLILRKYDGRWLIKHITHE | 1.47
TETERHIEEHLRQMVHQLRTGDFERFEDLADPNMRIDVDGKEFIGREAVDRFWRRVDVIHDLDFKDMEIQGNKVVLNVRIIGNINGVHDHTEQHIVVFKINGRWYWHSIEVH | 1.16
TEVEKKAREINKELSSALLTGDEHIMRRLADPHVRIFFNGQHLVGMEEMMKVLLHLRIKWKDIKIEDVKIQGDFMHIDTIEHGILEVGDKRIEFHREVEIYITKINGRWMIEELTYR | 1.34
TEYEEHMKKMNEEILHSWITGDEDTLQHLADPNVRVEINGQETHGREQLYNTFHKAGFKHWEFDSIRFQGDKSDIRGQFEVDGQLREMEVEMRIVNGRLKIVRLDIR | 0.977
TEYEHLMEYIVRRFLEVLLTGDERELDRLADPHVIHHMKQGDKSWSLHGMELLSEVSRHWRDEIRIKRVEIHDLKNIGNWSDMYSTVHLRYNGREEVVEVRLHIDVYNGRVREVEIRIH | 1.12
THDEEVIEIMMDHLREQIHTGDFTSLLEQLDPHARSDVDGREFHGREIVAHVWFHLRVKHVRIDHVDIVNGKIRVDSWIQGRINGRETEYEVILRAHKVDGRWRVHSYEIR | 1.72
THEDEIFKEFERILREVDETGDEHDIKQYLDPNTKFHINGRDLIGMKVVTEFWRELLQKYKNLTINRRIRHVEVYNGRVHIHGHLSLHYGDKDIRVDVHIQAIKIDGRWHLQQEHYL | 1.15
THEEEIFRRIAELIIDALTTGDEQLLRDLADPHVRQILIIDGREITVHGREEVFELLKEHIDELRIHRVNIEHMDVVGNKVTLDGRMDGYYGDKRTRLEFRIHIDIVNGKLKELTITMR | 2.16
THEEELSREATRFMLHVLMTGDPTLTEEQADPRTRVVVGDKELHGMEHLSKWYEDHWRQYPNVRIEFKRTEVQGDKMFLDGRLKVNGRETHVFILAFKINGQWVLEEIRFK | 1.59
THEEEQARRALKHLIELEKTGDEEKWSHLADPNVRMEINGRQVHGRETIRKIYHEWRRKLGVNHIHHIEIKHIDIQGEKLRVEMHVNSQYGDKTLLIETEIELDKIDGKWIITMHYER | 1.15

Sequence | protease stability score
THEEHFDERVARHLHENFLTGNEDIFEHLADPHTRIIIVQGDKMIHFHGWEWFAMKMLEDLHRIKGIRITLRHINIQGDKWILEMKVDIGDKELETEIIIHVINGKIESVRIIIR | 1.35
THEERLYREAMELEREVWETGDEHLIRDMVDPNVRFEINGVNTHGREEMARFVHEFGVDHIHIDHLQRINGRLEVRGKFQVGDKWVRTRFISTKINGRWFVESVHVR | 0.626
THEQKLSHEITHIFWEILKTGDEHEMRRLADPNVQLEINGVERHGMHVLEHWLVHLGIDHLHVTDHRVQGEYSYWDTTLRVGDKERTIHLEVLAFNGRVKAFRLHVR | 1.22
THEWREAREMIEVFLERIETGDEESLERLLDPHVRVHINGKDFHGRDEAIRKLIEMRHHSIHLKHINVQGDKVHNFGEWIVDFDGKKHTHKMILYISKVNGRWLIDSIHVE | 0.98
THLHDQVHKAVEDVERDLMTGNEERLYKLLDPNVRIEYNGQDLHGREIAIHFLIRISNHWRFEDLHIESMNVQGNKATIHSRYVRHIGDKREETHVHLYMVKINGQWFIHSMSFS | 2.25
TKDDEDRKHFEKLLRHSLETGNWHDMQRNADPNVRLNVNGVEIHGMDTAYELWVEELNRADHIEIHMEHSTRVGDKLHLDVNVIMKQGDKHIERRVRLVVLKINGRWFIHSVHVH | 1.1
TKEEDLMELALRIIERVNETGDEQELHDRLDPHTQIEIGDKNEHGWEHIVHVMRHIRIEQIRFRDRRVQGDKVHVFVESEIRVGEKQLHVKVDIYVWKFDGRWIMTRMRVE | 1.33
TKEEEESRHWSELMFHLEETGDEEILKDLADPHVKIHVNGVHLHGMEKLEEWRRRLGITKFDSHLHDFRVQGEKMHNIVHLHINGQKIDAHIIIIIVDGKITRIIIRIT | 0.75
TKEEELAHRALHEWINDINTGNEEEFKELVDPNARMLVDGRHHHGREHVINVFIHLIRKVKNLTVDLDEIEIQGDKVTVIGILRVDGREIHITIHSRKINGRWHFEDIVWE | 1.6
TQEKREADHSNKLEEHSHQTGDERLLTELADPHVKIFVDGQELHGREEFLRWVEEAGVKHFHVDHVRYQGDKLFVHGHFNINGREREVRLIYRKVNGKWYLHQMDIN | 1.23
TSHEHELRRVAEEIIHAYLTGDWWRWERLFDPHVRVETQVGDKRIERHGREDLIRFLNEMRVHRIEIKTRELYDGRVHIHSRMDYEVDGQRDDVDLHLHFHIVDGKVEEVVITIK | 1.47
TTEHAATLFLTSMITGDWEWISRLFDPHVRLVFNGVTNVGRELAIHKLVETVLKLGVKHTHIDEMRLYGDKVEVHVTLRVGDKTTNIDIEVDWVDGQVKEVHIDTRTEDTSKILKHVYK | 0.109
VEDLQLAEHVTRLLLHLVHTGDFDVMKELLDPNVRIHVDGQDYHGRDVWKHILDRFDYISVHHSEVKENDVQGNKVNIRVHTDVIFEYGDKRLRQRYDVVVIAQKINGRWIIELFSVR | 1.22
VEDLREYIRIAEELVKSWITGDWDRLRKLVDPNVRLDVDGVENIGRDHVHRALEEHEKHIRLKDHRIEHIDAVDGKSTMHTRSHFHINGVEHEVNVHMEFVIVNGRVTEMRISIR | 1.02
VETEERLHDIVHSIIRLDETGDEQDFDRLVDPNAKFDIDGKELHGRDNFRHMWARYRRELGVDHIQFKHVFIQGDKIHQERRVTIGDKTYNMHVDLVVIDGRIQHVRYRIR | 1.56
